In US20210101982A1:

Molecular target: PD-L1 on cells (cancer cell lines expressing PD-L1; PD-L1+ aAPC/CHO-K1 cells) (human) (UniProt Q9NZQ7)
Test: cell-based or functional assay

Chain of PD-L1 on cells (cancer cell lines expressing PD-L1; PD-L1+ aAPC/CHO-K1 cells) (human) (Q9NZQ7 19-290): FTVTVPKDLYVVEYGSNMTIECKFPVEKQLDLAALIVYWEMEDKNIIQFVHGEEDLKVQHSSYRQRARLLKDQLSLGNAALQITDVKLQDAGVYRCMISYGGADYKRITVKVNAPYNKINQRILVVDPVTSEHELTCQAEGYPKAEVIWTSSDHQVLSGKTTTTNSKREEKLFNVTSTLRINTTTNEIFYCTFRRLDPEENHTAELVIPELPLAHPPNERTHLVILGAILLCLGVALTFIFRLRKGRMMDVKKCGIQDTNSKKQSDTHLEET

Atezolizumab - MP-PEG8-VKG-Camptothecin (antibody)
> 3000 ng/mL: x50 (50% reduction in viability, CellTiter-Glo, 96 h) on 786-O cells | x50 (50% reduction in viability, CellTiter-Glo, 96 h) on BXPC3 cells | x50 (50% reduction in viability, CellTiter-Glo, 96 h) on KARPAS 299 cells | x50 (50% reduction in viability, CellTiter-Glo, 96 h) on L540CY cells | x50 (50% reduction in viability, CellTiter-Glo, 96 h) on MDA-MB-231 cells

Atezolizumab - vc-MMAE (antibody)
> 3000 ng/mL: x50 (50% reduction in viability, CellTiter-Glo, 96 h) on 786-O cells | x50 (50% reduction in viability, CellTiter-Glo, 96 h) on BXPC3 cells | x50 (50% reduction in viability, CellTiter-Glo, 96 h) on KARPAS 299 cells | x50 (50% reduction in viability, CellTiter-Glo, 96 h) on L540CY cells | x50 (50% reduction in viability, CellTiter-Glo, 96 h) on MDA-MB-231 cells
